Laboratory results from patent publication US20160032013A1 (Genentech, published 2016).

Experiments:
[1] = molecular target: T1, Human RON-hIgG1 Fc (RON Sema/PSI/IPT1 fused to human IgG1 Fc) (human); test: plate binding assay, plate-bound RON-Fc, soluble His-tagged MSP, anti-His-HRP, 4-parameter fit
T1 construct: also called RON-Fc; hRON-Fc
From the text: Means of three replicates per group are shown. […] C presents results of SPR analysis of MSP proteins binding to immobilized RON Sema/PSI, showing relative response in response units. Data are representative of three independent experiments. […] Competition binding to 3T3-hRON cells (large graphs) used to generate affinities and Scatchard plots (inset graphs) are shown. Mean+/−standard deviation (SD) of three independent experiments is shown. E is a homology model of the structure of RON Sema/PSI (PDB code 4FWW) shown at the bottom, which binds to MSP β (PDB code 2ASU) shown on top. RON and MSP β were globally aligned to the Met/HGF β complex (PDB code 1SHY). Predicted locations of the MSP β contact residues within 4 Å of RON are marked by asterisks. […]
MaxiSorp plates (Nalge Nunc International) were coated overnight at 4° C. with 2 μg/ml of rabbit anti-human IgG Fc specific antibody (Jackson ImmunoResearch Laboratories) in 50 mM sodium carbonate buffer, pH 9.6. […] Bound MSP was detected using anti-His-HRP (Qiagen Inc.) followed by addition of TMB/H₂O₂ substrate (Thermo Scientific). The reaction was stopped with 1M H₃PO₄ and the absorbance at 450 nm (A₄₅₀) was measured on a SpectraMax Plus³⁸⁴ plate reader (Molecular Devices, LLC). The half maximal effective concentration of MSP (EC₅₀) was determined by a 4-parameter fit using Kaleidagraph (Synergy Software).

[2] = molecular target: T2, Human RON on cells (3T3-hRON, A2780-hRON, BxPC3, human primary colon cells) (human, UniProt Q04912 25-1400); test: radioligand binding to 3T3-hRON cells for 4 h on ice
T2 construct: That is its entry for human RON

[3] = molecular target: T2, Human RON on cells (3T3-hRON, …); test: radioligand competition binding on 3T3-hRON cells: fixed 125I-MSP 689R as competitor, unlabeled MSP 689R titrated [Continued) D]
Procedure: (§1) MSP proteins were iodinated using the Iodogen method (Thermo Scientific) and purified from free Na¹²⁵I by gel filtration using a NAP-5 column. Specific activities ranged from 12.26 to 18.65 μCi/μg. Competition reaction mixtures were made of a fixed concentration of iodinated MSP and unlabeled MSP serially diluted 1- to 2-fold ten times starting at 5 μM in a volume of 50 μL. 3T3-hRon cells were washed with binding buffer, consisting of DMEM with 1% bovine serum albumin, 325 nM human IgG, 50 mM HEPES (pH 7.2) and 0.1% sodium azide. 150,000 cells in 0.2 ml binding buffer were added to competition reaction mixtures. Competition reactions with cells were incubated for 2 h at room temperature and transferred to a Multiscreen filter plate (Millipore) and washed 4 times with binding buffer. Filters were counted on a Wallac Wizard 1470 gamma counter (PerkinElmer Life and Analytical Sciences). Binding affinities were determined using NewLigand software (Genentech, Inc) (Munson et al., 1980, Anal Biochem 107:220-39).

[4] = molecular target: T2, Human RON on cells (3T3-hRON, …); test: radioligand binding to 3T3-hRON cells for 2 h at room temperature
Procedure: as §1

T1 sequence (chain, as listed by the source limits assumed): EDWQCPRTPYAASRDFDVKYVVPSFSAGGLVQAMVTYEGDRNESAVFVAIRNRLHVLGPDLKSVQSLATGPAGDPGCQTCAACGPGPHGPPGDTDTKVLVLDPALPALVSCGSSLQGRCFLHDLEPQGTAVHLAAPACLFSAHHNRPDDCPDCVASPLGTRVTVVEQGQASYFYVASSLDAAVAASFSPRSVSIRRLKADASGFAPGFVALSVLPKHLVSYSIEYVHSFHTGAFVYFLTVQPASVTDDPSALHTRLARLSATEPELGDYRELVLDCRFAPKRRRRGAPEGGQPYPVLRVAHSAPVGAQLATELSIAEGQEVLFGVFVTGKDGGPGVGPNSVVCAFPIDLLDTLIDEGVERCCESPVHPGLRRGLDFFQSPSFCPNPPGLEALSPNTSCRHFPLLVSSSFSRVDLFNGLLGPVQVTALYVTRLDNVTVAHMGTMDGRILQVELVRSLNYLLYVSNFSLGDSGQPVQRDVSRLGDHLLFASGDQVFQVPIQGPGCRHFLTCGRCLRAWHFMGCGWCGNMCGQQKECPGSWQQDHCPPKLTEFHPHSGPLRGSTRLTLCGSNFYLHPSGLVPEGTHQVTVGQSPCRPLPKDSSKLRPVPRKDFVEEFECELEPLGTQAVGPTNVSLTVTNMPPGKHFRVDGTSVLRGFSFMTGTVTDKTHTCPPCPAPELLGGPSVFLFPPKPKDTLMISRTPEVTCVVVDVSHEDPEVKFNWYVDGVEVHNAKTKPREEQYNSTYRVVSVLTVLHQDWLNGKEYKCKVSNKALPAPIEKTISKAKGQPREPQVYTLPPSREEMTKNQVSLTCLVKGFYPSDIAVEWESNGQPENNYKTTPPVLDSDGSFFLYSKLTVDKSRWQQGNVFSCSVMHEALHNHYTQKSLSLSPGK

EC50 [1]: 0.0001 µM | Kd [2]: 0.023 µM | IC50 (read off the curve) [3]: ~0.01 µM | Kd [4]: 0.0126 µM
B1: Full length human MSP 689R (wild type + C672A + His tag), active two-chain form (ligand)
chain 1: QRSPLNDFQVLRGTELQHLLHAVVPGPWQEDVADAEECAGRCGPLMDCRAFHYNVSSHGCQLLPWTQHSPHTRLRRSGRCDLFQKKDYVRTCIMNNGVGYRGTMATTVGGLPCQAWSHKFPNDHKYTPTLRNGLEENFCRNPDGDPGGPWCYTTDPAVRFQSCGIKSCREAACVWCNGEEYRGAVDRTESGRECQRWDLQHPHQHPFEPGKFLDQGLDDNYCRNPDGSERPWCYTTDPQIEREFCDLPRCGSEAQPRQEATTVSCFRGKGEGYRGTANTTTAGVPCQRWDAQIPHQHRFTPEKYACKDLRENFCRNPDGSEAPWCFTLRPGMRAAFCYQIRRCTDDVRPQDCYHGAGEQYRGTVSKTRKGVQCQRWSAETPHKPQFTFTSEPHAQLEENFCRNPDGDSHGPWCYTMDPRTPFDYCALRRCADDQPPSILDPPDQVQFEKCGKRVDRLDQRRSKLR
chain 2: VVGGHPGNSPWTVSLRNRQGQHFCGGSLVKEQWILTARQCFSSCHMPLTGYEVWLGTLFQNPQHGEPSLQRVPVAKMVCGPSGSQLVLLKLERSVTLNQRVALICLPPEWYVVPPGTKCEIAGWGETKGTGNDTVLNVALLNVISNQECNIKHRGRVRESEMCTEGLLAPVGACEGDYGGPLACFTHNAWVLEGIIIPNRVCARSRWPAVFTRVSVFVDWIHKVMRLGHHHHHH
notes: Pro-MSP converted with sHepsin into the disulfide-linked alpha/beta heterodimer; Numbering is that of pro-MSP; also called full-length MSP; human full-length MSP
